Molecular target: T1, ADAMTS13 (Homo sapiens, UniProt Q76LX8)
T1 construct: tissue Gen-Probe GTI Diagnostics (ATS-13 kit calibrators, controls and proficiency samples); George King Biomedical Inc. (FACT, A-FACT, B-FACT plasmas) ATS-13; host or cells: plasma
T1 sequence (Q76LX8 75-1427): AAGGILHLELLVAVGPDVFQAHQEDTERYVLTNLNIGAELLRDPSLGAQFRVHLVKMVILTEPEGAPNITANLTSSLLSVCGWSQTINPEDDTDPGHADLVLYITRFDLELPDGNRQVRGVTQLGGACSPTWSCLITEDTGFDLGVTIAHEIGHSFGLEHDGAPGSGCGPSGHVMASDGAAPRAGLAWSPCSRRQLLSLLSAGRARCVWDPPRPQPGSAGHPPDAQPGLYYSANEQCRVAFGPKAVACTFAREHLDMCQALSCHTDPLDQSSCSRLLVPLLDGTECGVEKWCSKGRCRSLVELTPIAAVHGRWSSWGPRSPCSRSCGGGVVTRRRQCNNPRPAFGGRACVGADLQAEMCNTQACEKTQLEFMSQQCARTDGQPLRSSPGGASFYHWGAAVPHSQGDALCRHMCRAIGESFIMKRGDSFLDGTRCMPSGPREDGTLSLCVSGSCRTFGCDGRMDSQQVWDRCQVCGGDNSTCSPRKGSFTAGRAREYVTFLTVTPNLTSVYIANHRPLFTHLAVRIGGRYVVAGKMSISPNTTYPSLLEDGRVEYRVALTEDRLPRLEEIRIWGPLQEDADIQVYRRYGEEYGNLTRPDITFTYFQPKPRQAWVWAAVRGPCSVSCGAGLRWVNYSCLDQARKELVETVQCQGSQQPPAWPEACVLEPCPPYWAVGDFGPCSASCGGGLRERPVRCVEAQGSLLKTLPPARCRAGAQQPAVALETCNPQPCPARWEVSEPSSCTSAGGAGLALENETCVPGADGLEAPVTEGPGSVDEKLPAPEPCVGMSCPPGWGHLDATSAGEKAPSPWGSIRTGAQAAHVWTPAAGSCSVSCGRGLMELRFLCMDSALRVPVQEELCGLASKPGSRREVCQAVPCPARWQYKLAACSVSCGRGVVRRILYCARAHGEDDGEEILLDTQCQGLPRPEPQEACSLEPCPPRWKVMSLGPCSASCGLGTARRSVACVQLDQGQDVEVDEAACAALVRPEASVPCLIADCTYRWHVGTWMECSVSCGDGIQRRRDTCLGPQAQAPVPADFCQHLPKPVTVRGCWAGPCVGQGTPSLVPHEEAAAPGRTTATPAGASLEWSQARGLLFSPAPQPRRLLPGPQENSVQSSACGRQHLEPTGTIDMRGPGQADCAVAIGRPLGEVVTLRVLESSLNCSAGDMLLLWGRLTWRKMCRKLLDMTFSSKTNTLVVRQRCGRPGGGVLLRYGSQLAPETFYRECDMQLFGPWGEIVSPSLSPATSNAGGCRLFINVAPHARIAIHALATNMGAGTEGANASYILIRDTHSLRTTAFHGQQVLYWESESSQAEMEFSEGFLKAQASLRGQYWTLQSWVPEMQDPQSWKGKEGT
Experiment: ADAMTS13 activity assay with fluorogenic (FRET) polypeptide substrate and diluted plasma samples
Type: biochemical
Conditions: for % Normal ADAMTS13 Activity: 30 Minute Incubation Time: Table 5
Description: The procedure in this example was performed substantially as described in Kokame, K., Y. Nobe, Y. Kokubo, A. Okayama, and T. Miyata. 2005. FRETS-VWF73, a first fluorogenic substrate for ADAMTS13 assay. Br. J. Haematol. 129:93-100, but using SEQ ID NO: 1 in place of the 73 amino acid substrate described therein. The FRETS-VWF73 substrate solution was dissolved in 25% dimethyl sulphoxide/water to prepare the 100 microM stock solution. The GTI FRET4 SEQ ID NO: 1 was dissolved in 100% DMSO. Both substrates were diluted to equal concentrations using ATS-13 substrate buffer (Gen-Probe GT1 Diagnostics, Inc., U.S.A., Cat#ATS-13).
Plasma samples were diluted according to the ATS-13 Direction Insert using ATS-13 specimen diluent (Gen-Probe GTI Diagnostics, Inc., U.S.A., Cat# ATS-13). The diluted plasma samples were mixed with the diluted substrate and the fluorescence was read at 0, 5, 10, 15, 20, 30, 45 minutes using a Biotek FLX800 at the appropriate excitation and emission wavelengths for each substrate.
The fluorophore-quencher pair in the SEQ ID NO: 1 polypeptide substrate is FAM-5/TQ 2^Tm (Ex 485±20; Em 528±20; AAT Bioquest, Inc. Sunnyvale, Calif. U.S.A.). The fluorophore and quencher pair of FRETS-VWF73 (Nma/Dnp) described in Kokame has been substituted with FAM-5 and TQ_2 respectively in GTI_FRET4 SEQ ID NO: 1. Furthermore, in the SEQ ID NO: 1 polypeptide the position of the fluorophore (FAM-5) and quencher (TQ_2) has been swapped relative to the position of the fluorophore and quencher of the FRETS-VWF73 construct. Therefore, for GTI_FRET4 SEQ ID NO: 1, attachment of the fluorophore (FAM-5) occurs by substituting asparagine with cystine at position 15. The quencher (TQ_2) was attached by substituting glutamine with lysine at position 4 (FIG. 2 and Table 4).
For this experiment, substrate concentration and fluorescence reader settings determined on the previous experiment are used. The specimens tested (listed in Table 3), include a panel of proficiency samples prepared for use with ATS-13 (Gen-Probe GTI Diagnostics, Inc., U.S.A., Cat# ATS-13) which included samples with normal or deficient ADAMTS13 activity levels. In addition, six Factor Assay ConTrol plasma were used (2 FACT, 2 A-FACT and 2 B-FACT, from George King Biomedical Inc., Kansas, USA). The assays for the SEQ ID NO: 1 substrate and for the prior art FRETS-VWF73 assay were performed generally as according to the procedure described in Example 1. Substrate is prepared according to the conditions used for initial testing of the substrate, which prepared the molar amount of SEQ ID NO: 1 polypeptide substrate used in the assay to be equivalent to the molar amount of FRETS-VWF73 used in the prior art. The […] assays were read at 0, 5, 10, 15, 20, 30, 45 minutes.
Testing of substrate for cleavability by ADAMTS13 is determined as is generally described in Example 1. […]

time through which the calibration curve continued to be linear: ≤ 45 min
trend line of the calibration curve: linear
time at which the calculated % N ADAMTS13 activity plateaus (Example 1): 30 min
difference between Calibrator A (0% ADAMTS13 activity) and Calibrator E (100% ADAMTS13 activity), dynamic range (Example 1, at 30 minutes): approximately 34,000 RFU
difference between Calibrator A and E, dynamic range (Example 2, at 30 minutes): approximately 35000 RFU
% Normal ADAMTS13 Activity: 30 Minute Incubation Time (sample 5 (ATS13-5)): 7 % Normal
% Normal ADAMTS13 Activity: 30 Minute Incubation Time (sample 22 (ATS13-4)): 21 % Normal
% Normal ADAMTS13 Activity: 30 Minute Incubation Time (sample 50 (ATS13-3)): 47 % Normal
% Normal ADAMTS13 Activity: 30 Minute Incubation Time (sample 72 (ATS13-2)): 72 % Normal
% Normal ADAMTS13 Activity: 30 Minute Incubation Time (sample 90 (ATS13-1)): 92 % Normal
% Normal ADAMTS13 Activity: 30 Minute Incubation Time (sample A-FACT lot 900): 10 % Normal
% Normal ADAMTS13 Activity: 30 Minute Incubation Time (sample A-FACT lot 1284): 10 % Normal
% Normal ADAMTS13 Activity: 30 Minute Incubation Time (sample B-FACT lot 1114): 45 % Normal
% Normal ADAMTS13 Activity: 30 Minute Incubation Time (sample B-FACT lot 1266): 46 % Normal
% Normal ADAMTS13 Activity: 30 Minute Incubation Time (sample BCM2): 19 % Normal
% Normal ADAMTS13 Activity: 30 Minute Incubation Time (sample BCM2 HI): 12 % Normal
% Normal ADAMTS13 Activity: 30 Minute Incubation Time (sample BCM2 mixed): 51 % Normal
% Normal ADAMTS13 Activity: 30 Minute Incubation Time (sample CNTL): <Calibrator A
% Normal ADAMTS13 Activity: 30 Minute Incubation Time (sample CNTL HI): <Calibrator A
% Normal ADAMTS13 Activity: 30 Minute Incubation Time (sample CNTL mixed): 4 % Normal
% Normal ADAMTS13 Activity: 30 Minute Incubation Time (sample Calibrator A): 4 % Normal
% Normal ADAMTS13 Activity: 30 Minute Incubation Time (sample Calibrator B): 9 % Normal
% Normal ADAMTS13 Activity: 30 Minute Incubation Time (sample Calibrator C): 29 % Normal
% Normal ADAMTS13 Activity: 30 Minute Incubation Time (sample Calibrator D): 61 % Normal
% Normal ADAMTS13 Activity: 30 Minute Incubation Time (sample Calibrator E): 110 % Normal
% Normal ADAMTS13 Activity: 30 Minute Incubation Time (sample FACT lot 222e1): 111 % Normal
% Normal ADAMTS13 Activity: 30 Minute Incubation Time (sample FACT lot 1223): 107 % Normal
% Normal ADAMTS13 Activity: 30 Minute Incubation Time (sample NPP032206): >Calibrator E
% Normal ADAMTS13 Activity: 30 Minute Incubation Time (sample NPP032206 HI): 9 % Normal
% Normal ADAMTS13 Activity: 30 Minute Incubation Time (sample NPP032206 at 37C): 106 % Normal
% Normal ADAMTS13 Activity: 30 Minute Incubation Time (sample NPP032206 mixed): 57 % Normal
% Normal ADAMTS13 Activity: 30 Minute Incubation Time (sample Positive Control High): 50 % Normal
% Normal ADAMTS13 Activity: 30 Minute Incubation Time (sample Positive Control Low): 14 % Normal
% Normal ADAMTS13 Activity: 30 Minute Incubation Time (sample UAMS041609): 31 % Normal
% Normal ADAMTS13 Activity: 30 Minute Incubation Time (sample VF040901): 10 % Normal
Increase in Fluorescence Values (X minute - 0 minute Reading) (sample Calibrator A, 15 min): 676 RFU
Increase in Fluorescence Values (X minute - 0 minute Reading) (sample Calibrator A, 30 min): 843 RFU
Increase in Fluorescence Values (X minute - 0 minute Reading) (sample Calibrator A, 45 min): 921 RFU
Increase in Fluorescence Values (X minute - 0 minute Reading) (sample Calibrator A, 60 min): 1,166 RFU
Increase in Fluorescence Values (X minute - 0 minute Reading) (sample Calibrator A, 75 min): 1,013 RFU
Increase in Fluorescence Values (X minute - 0 minute Reading) (sample Calibrator A, 90 min): 959 RFU
% Normal ADAMTS13 Values Calculated Using GTI_FRET4 Substrate (sample Calibrator A, incubation 15 Minutes): 1 % Normal
% Normal ADAMTS13 Values Calculated Using GTI_FRET4 Substrate (sample Calibrator A, incubation 30 Minutes): 1 % Normal
% Normal ADAMTS13 Values Calculated Using GTI_FRET4 Substrate (sample Calibrator A, incubation 45 Minutes): 0 % Normal
% Normal ADAMTS13 Values Calculated Using GTI_FRET4 Substrate (sample Calibrator A, incubation 60 Minutes): 0 % Normal
% Normal ADAMTS13 Values Calculated Using GTI_FRET4 Substrate (sample Calibrator A, incubation 75 Minutes): 0 % Normal
% Normal ADAMTS13 Values Calculated Using GTI_FRET4 Substrate (sample Calibrator A, incubation 90 Minutes): 0 % Normal
Increase in Fluorescence Values (X minute - 0 minute Reading) (sample Calibrator B, 15 min): 1,765 RFU
Increase in Fluorescence Values (X minute - 0 minute Reading) (sample Calibrator B, 30 min): 3,000 RFU
Increase in Fluorescence Values (X minute - 0 minute Reading) (sample Calibrator B, 45 min): 4,164 RFU
Increase in Fluorescence Values (X minute - 0 minute Reading) (sample Calibrator B, 60 min): 5,358 RFU
Increase in Fluorescence Values (X minute - 0 minute Reading) (sample Calibrator B, 75 min): 6,468 RFU
Increase in Fluorescence Values (X minute - 0 minute Reading) (sample Calibrator B, 90 min): 7,581 RFU
% Normal ADAMTS13 Values Calculated Using GTI_FRET4 Substrate (sample Calibrator B, incubation 15 Minutes): 7 % Normal
% Normal ADAMTS13 Values Calculated Using GTI_FRET4 Substrate (sample Calibrator B, incubation 30 Minutes): 7 % Normal
% Normal ADAMTS13 Values Calculated Using GTI_FRET4 Substrate (sample Calibrator B, incubation 45 Minutes): 7 % Normal
% Normal ADAMTS13 Values Calculated Using GTI_FRET4 Substrate (sample Calibrator B, incubation 60 Minutes): 7 % Normal
% Normal ADAMTS13 Values Calculated Using GTI_FRET4 Substrate (sample Calibrator B, incubation 75 Minutes): 6 % Normal
% Normal ADAMTS13 Values Calculated Using GTI_FRET4 Substrate (sample Calibrator B, incubation 90 Minutes): 6 % Normal
Increase in Fluorescence Values (X minute - 0 minute Reading) (sample Calibrator C, 15 min): 6,178 RFU
Increase in Fluorescence Values (X minute - 0 minute Reading) (sample Calibrator C, 30 min): 11,701 RFU
Increase in Fluorescence Values (X minute - 0 minute Reading) (sample Calibrator C, 45 min): 16,807 RFU
Increase in Fluorescence Values (X minute - 0 minute Reading) (sample Calibrator C, 60 min): 21,705 RFU
Increase in Fluorescence Values (X minute - 0 minute Reading) (sample Calibrator C, 75 min): 26,685 RFU
Increase in Fluorescence Values (X minute - 0 minute Reading) (sample Calibrator C, 90 min): 32,209 RFU
% Normal ADAMTS13 Values Calculated Using GTI_FRET4 Substrate (sample Calibrator C, incubation 15 Minutes): 32 % Normal
% Normal ADAMTS13 Values Calculated Using GTI_FRET4 Substrate (sample Calibrator C, incubation 30 Minutes): 33 % Normal
% Normal ADAMTS13 Values Calculated Using GTI_FRET4 Substrate (sample Calibrator C, incubation 45 Minutes): 33 % Normal
% Normal ADAMTS13 Values Calculated Using GTI_FRET4 Substrate (sample Calibrator C, incubation 60 Minutes): 34 % Normal
% Normal ADAMTS13 Values Calculated Using GTI_FRET4 Substrate (sample Calibrator C, incubation 75 Minutes): 35 % Normal
% Normal ADAMTS13 Values Calculated Using GTI_FRET4 Substrate (sample Calibrator C, incubation 90 Minutes): 36 % Normal
Increase in Fluorescence Values (X minute - 0 minute Reading) (sample Calibrator D, 15 min): 10,887 RFU
Increase in Fluorescence Values (X minute - 0 minute Reading) (sample Calibrator D, 30 min): 20,626 RFU
Increase in Fluorescence Values (X minute - 0 minute Reading) (sample Calibrator D, 45 min): 29,206 RFU
Increase in Fluorescence Values (X minute - 0 minute Reading) (sample Calibrator D, 60 min): 37,289 RFU
Increase in Fluorescence Values (X minute - 0 minute Reading) (sample Calibrator D, 75 min): 44,543 RFU
Increase in Fluorescence Values (X minute - 0 minute Reading) (sample Calibrator D, 90 min): 53,613 RFU
Sequence: DREKAPNLVYMVTGCPASDEIKRLPGDIQVVPIEVIGWPNAPILIQDEETLPREAPDLVLQR [GTI_FRET4]

Reference: patent US10538802B2, “Polypeptide substrate for the detection of von Williebrand factor cleaving protease ADAMTS13” (IMMUCOR GTI DIAGNOSTICS, INC., priority 2011, dated 2020)
